Measured values reported in patent US8541373B2, “BChE albumin fusions for the treatment of cocaine abuse” (priority 2009, dated 2013).

Test system: cocaine
Assay: Plasma cocaine, benzoylecgonine and ecgonine methyl ester (LC-MS) and cocaine PK after IV cocaine post-AlbuBChE
Format: in vivo, cynomolgus monkeys
Experimental: Blood was placed into K2EDTA blood collection tubes with esterase inhibitor diisopropylfluorophosphate (DFP). Tubes were inverted several times and placed on wet ice upon collection. Samples were centrifuged at 2-8° C. within 45 minutes of collection. The resultant plasma was recovered and a single 200 μL aliquot of plasma was placed into polypropylene tubes. Plasma samples were frozen over dry ice and stored at −75±15° C.
The following outline describes the LC-MS-based assay employed for the measurement of cocaine in plasma samples. Prior to MS analysis, plasma samples, calibration standards and controls were extracted using supported liquid extraction (SLE-ISOLUTE, Biotage). Twenty-five microliters of samples (25 μL) received 150 μl of 5% Ammonium hydroxide and 25 μl internal standard solution (Cocaine-d3). After mixing and transfer to SLE plate, samples were eluted with methylene chloride and evaporated to dryness. After resuspension in 50 μl of reconstitution solution—5% ACM in 10 mM ammonium acetate in water, 10 μl was injected onto Thermo Hypercarb column at 0.5 ml/min. Mobile phase was biphasic. Mass spectrophotometric detection was performed using Api 4000, APCI positive interface and Multiple Reaction Monitoring (MRM). Plasma concentrations of cocaine, benzoylecgonine and ecgonine methyl ester were determined using this assay.
When the data permits, pharmacokinetic parameter values for cocaine and its metabolites were determined using plasma concentration-times profiles for individual animals at all the study days of cocaine administration. […] Specifically the model for non-compartmental analysis with IV bolus input for cocaine and extravascular input for the metabolites.

[1] = 1 mg/kg IM, cocaine 1 mg/kg IV 96 hr post-AlbuBChE, 20 min after cocaine
[2] = 1 mg/kg IM, cocaine 1 mg/kg IV 96 hr post-AlbuBChE, 30 min after cocaine
[3] = 1 mg/kg IM, cocaine 1 mg/kg IV 96 hr post-AlbuBChE, 40 min after cocaine
[4] = 1 mg/kg IM, cocaine 1 mg/kg IV 96 hr post-AlbuBChE, 60 min after cocaine
[5] = 1 mg/kg IM, cocaine 1 mg/kg IV 120 hr post-AlbuBChE
[6] = 1 mg/kg IM, cocaine 1 mg/kg IV 120 hr post-AlbuBChE, 5 min after cocaine
[7] = 1 mg/kg IM, cocaine 1 mg/kg IV 120 hr post-AlbuBChE, 10 min after cocaine
[8] = 1 mg/kg IM, cocaine 1 mg/kg IV 120 hr post-AlbuBChE, 15 min after cocaine
[9] = 1 mg/kg IM, cocaine 1 mg/kg IV 120 hr post-AlbuBChE, 20 min after cocaine
[10] = 1 mg/kg IM, cocaine 1 mg/kg IV 120 hr post-AlbuBChE, 30 min after cocaine
[11] = 1 mg/kg IM, cocaine 1 mg/kg IV 120 hr post-AlbuBChE, 40 min after cocaine
[12] = 1 mg/kg IM, cocaine 1 mg/kg IV 120 hr post-AlbuBChE, 60 min after cocaine
[13] = 1 mg/kg IM, cocaine 1 mg/kg IV 240 hr post-AlbuBChE
[14] = 1 mg/kg IM, cocaine 1 mg/kg IV 240 hr post-AlbuBChE, 5 min after cocaine
[15] = 1 mg/kg IM, cocaine 1 mg/kg IV 240 hr post-AlbuBChE, 10 min after cocaine
[16] = 1 mg/kg IM, cocaine 1 mg/kg IV 240 hr post-AlbuBChE, 15 min after cocaine
[17] = 1 mg/kg IM, cocaine 1 mg/kg IV 240 hr post-AlbuBChE, 20 min after cocaine
[18] = 1 mg/kg IM, cocaine 1 mg/kg IV 240 hr post-AlbuBChE, 30 min after cocaine
[19] = 1 mg/kg IM, cocaine 1 mg/kg IV 240 hr post-AlbuBChE, 40 min after cocaine
[20] = 1 mg/kg IM, cocaine 1 mg/kg IV 240 hr post-AlbuBChE, 60 min after cocaine
[21] = 5 mg/kg IM, cocaine 1 mg/kg IV 2 hr post-AlbuBChE
[22] = 5 mg/kg IM, cocaine 1 mg/kg IV 2 hr post-AlbuBChE, 5 min after cocaine
[23] = 5 mg/kg IM, cocaine 1 mg/kg IV 2 hr post-AlbuBChE, 10 min after cocaine
[24] = 5 mg/kg IM, cocaine 1 mg/kg IV 2 hr post-AlbuBChE, 15 min after cocaine
[25] = 5 mg/kg IM, cocaine 1 mg/kg IV 2 hr post-AlbuBChE, 20 min after cocaine
[26] = 5 mg/kg IM, cocaine 1 mg/kg IV 2 hr post-AlbuBChE, 30 min after cocaine
[27] = 5 mg/kg IM, cocaine 1 mg/kg IV 2 hr post-AlbuBChE, 40 min after cocaine
[28] = 5 mg/kg IM, cocaine 1 mg/kg IV 2 hr post-AlbuBChE, 60 min after cocaine
[29] = 5 mg/kg IM, cocaine 1 mg/kg IV 48 hr post-AlbuBChE
[30] = 5 mg/kg IM, cocaine 1 mg/kg IV 48 hr post-AlbuBChE, 5 min after cocaine

Substance: AlbuBChE
- Ecgonine methyl ester plasma concentration (mean) [1]: 47.3 ng/mL
- Mean benzoylecgonine plasma concentration [1]: 43.7 ng/mL
- Mean cocaine plasma concentration [1]: 208 ng/mL
- Ecgonine methyl ester plasma concentration (mean) [2]: 57.3 ng/mL
- Mean benzoylecgonine plasma concentration [2]: 47.4 ng/mL
- Mean cocaine plasma concentration [2]: 162 ng/mL
- Ecgonine methyl ester plasma concentration (mean) [3]: 64.4 ng/mL
- Mean benzoylecgonine plasma concentration [3]: 46.7 ng/mL
- Mean cocaine plasma concentration [3]: 123 ng/mL
- Ecgonine methyl ester plasma concentration (mean) [4]: 59.9 ng/mL
- Mean benzoylecgonine plasma concentration [4]: 49.6 ng/mL
- Mean cocaine plasma concentration [4]: 64.8 ng/mL
- Mean benzoylecgonine AUC(0-t) [5]: 2809 ng·min/mL
- Mean cocaine AUC % Extrap [5]: 22.4%
- Mean cocaine AUC(0-t) [5]: 11526 ng·min/mL
- Mean cocaine AUC(0-∞) [5]: 14838 ng·min/mL
- Mean cocaine C0 [5]: 491 ng/mL
- Mean cocaine CI [5]: 67.4 mL/min/kg
- Mean cocaine Vss [5]: 2.687 L/kg
- Mean cocaine t½ [5]: 28.6 min
- Ecgonine methyl ester plasma concentration (mean) [6]: 42.7 ng/mL
- Mean benzoylecgonine plasma concentration [6]: 37.2 ng/mL
- Mean cocaine plasma concentration [6]: 356 ng/mL
- Ecgonine methyl ester plasma concentration (mean) [7]: 27.4 ng/mL
- Mean benzoylecgonine plasma concentration [7]: 38.9 ng/mL
- Mean cocaine plasma concentration [7]: 263 ng/mL
- Ecgonine methyl ester plasma concentration (mean) [8]: 37.8 ng/mL
- Mean benzoylecgonine plasma concentration [8]: 42.2 ng/mL
- Mean cocaine plasma concentration [8]: 233 ng/mL
- Ecgonine methyl ester plasma concentration (mean) [9]: 31.8 ng/mL
- Mean benzoylecgonine plasma concentration [9]: 40.2 ng/mL
- Mean cocaine plasma concentration [9]: 202 ng/mL
- Ecgonine methyl ester plasma concentration (mean) [10]: 104 ng/mL
- Mean benzoylecgonine plasma concentration [10]: 51.3 ng/mL
- Mean cocaine plasma concentration [10]: 161 ng/mL
- Ecgonine methyl ester plasma concentration (mean) [11]: 68.6 ng/mL
- Mean benzoylecgonine plasma concentration [11]: 50.9 ng/mL
- Mean cocaine plasma concentration [11]: 141 ng/mL
- Ecgonine methyl ester plasma concentration (mean) [12]: 76.8 ng/mL
- Mean benzoylecgonine plasma concentration [12]: 54.4 ng/mL
- Mean cocaine plasma concentration [12]: 79.7 ng/mL
- Mean benzoylecgonine AUC(0-t) [13]: 3660 ng·min/mL
- Mean cocaine AUC % Extrap [13]: 26.7%
- Mean cocaine AUC(0-t) [13]: 14364 ng·min/mL
- Mean cocaine AUC(0-∞) [13]: 19623 ng·min/mL
- Mean cocaine C0 [13]: 467 ng/mL
- Mean cocaine CI [13]: 51.1 mL/min/kg
- Mean cocaine Vss [13]: 2.288 L/kg
- Mean cocaine t½ [13]: 31.0 min
- Ecgonine methyl ester plasma concentration (mean) [14]: 92.7 ng/mL
- Mean benzoylecgonine plasma concentration [14]: 40.0 ng/mL
- Mean cocaine plasma concentration [14]: 397 ng/mL
- Ecgonine methyl ester plasma concentration (mean) [15]: 21.9 ng/mL
- Mean benzoylecgonine plasma concentration [15]: 47.2 ng/mL
- Mean cocaine plasma concentration [15]: 340 ng/mL
- Ecgonine methyl ester plasma concentration (mean) [16]: 25.9 ng/mL
- Mean benzoylecgonine plasma concentration [16]: 55.0 ng/mL
- Mean cocaine plasma concentration [16]: 300 ng/mL
- Ecgonine methyl ester plasma concentration (mean) [17]: 29.5 ng/mL
- Mean benzoylecgonine plasma concentration [17]: 56.7 ng/mL
- Mean cocaine plasma concentration [17]: 259 ng/mL
- Ecgonine methyl ester plasma concentration (mean) [18]: 41.3 ng/mL
- Mean benzoylecgonine plasma concentration [18]: 64.6 ng/mL
- Mean cocaine plasma concentration [18]: 218 ng/mL
- Ecgonine methyl ester plasma concentration (mean) [19]: 51.8 ng/mL
- Mean benzoylecgonine plasma concentration [19]: 68.3 ng/mL
- Mean cocaine plasma concentration [19]: 181 ng/mL
- Ecgonine methyl ester plasma concentration (mean) [20]: 54.3 ng/mL
- Mean benzoylecgonine plasma concentration [20]: 75.2 ng/mL
- Mean cocaine plasma concentration [20]: 117 ng/mL
- Mean benzoylecgonine AUC(0-t) [21]: 1405 ng·min/mL
- Mean cocaine AUC(0-t) [21]: 3289 ng·min/mL
- Mean cocaine C0 [21]: 271 ng/mL
- Ecgonine methyl ester plasma concentration (mean) [22]: 337 ng/mL
- Mean benzoylecgonine plasma concentration [22]: 22.3 ng/mL
- Mean cocaine plasma concentration [22]: 145 ng/mL
- Ecgonine methyl ester plasma concentration (mean) [23]: 321 ng/mL
- Mean benzoylecgonine plasma concentration [23]: 23.7 ng/mL
- Mean cocaine plasma concentration [23]: 77.9 ng/mL
- Ecgonine methyl ester plasma concentration (mean) [24]: 363 ng/mL
- Mean benzoylecgonine plasma concentration [24]: 22.0 ng/mL
- Mean cocaine plasma concentration [24]: 43.5 ng/mL
- Ecgonine methyl ester plasma concentration (mean) [25]: 331 ng/mL
- Mean benzoylecgonine plasma concentration [25]: 22.9 ng/mL
- Mean cocaine plasma concentration [25]: 12.8 ng/mL
- Ecgonine methyl ester plasma concentration (mean) [26]: 266 ng/mL
- Mean benzoylecgonine plasma concentration [26]: 31.1 ng/mL
- Mean cocaine plasma concentration [26]: 110 ng/mL
- Ecgonine methyl ester plasma concentration (mean) [27]: 308 ng/mL
- Mean benzoylecgonine plasma concentration [27]: 21.3 ng/mL
- Mean cocaine plasma concentration [27]: 4.96 ng/mL
- Ecgonine methyl ester plasma concentration (mean) [28]: 248 ng/mL
- Mean benzoylecgonine plasma concentration [28]: 20.1 ng/mL
- Mean cocaine plasma concentration [28]: 2.26 ng/mL
- Mean benzoylecgonine AUC(0-t) [29]: 1441 ng·min/mL
- Mean cocaine AUC % Extrap [29]: 3.0%
- Mean cocaine AUC(0-t) [29]: 3015 ng·min/mL
- Mean cocaine AUC(0-∞) [29]: 3110 ng·min/mL
- Mean cocaine C0 [29]: 177 ng/mL
- Mean cocaine CI [29]: 325 mL/min/kg
- Mean cocaine Vss [29]: 5.729 L/kg
- Mean cocaine t½ [29]: 11.4 min
- Ecgonine methyl ester plasma concentration (mean) [30]: 119 ng/mL
- Mean benzoylecgonine plasma concentration [30]: 20.0 ng/mL
- Mean cocaine plasma concentration [30]: 126 ng/mL
